The data set in a line: soluble on expression in E. coli; label from the status in PepcDB or PDB records.
“GPGSMGVVLRELRMRQESATFLLAAVSVNPLLRCAWEDLACLVSRETQLAELDAALDGLEPFFMVDIFAAEVRGLLGVTPVSSARLRIAAAAASAPSDGFEPSPPCSAPPEGHAATTTATAAKAGTRTSPLLPPPRTNAGATPPIPAAALSNAWECFSLLFPDTPFCLSQLAHFYYHQRNRLDRAEALYQRIRALDPHYLAILYDYSNVLYTKRDRLGLSSLAQSVYQADAFRAETNFAVGNYYVLLGQHDRAALHFHRATAIDPQCAEAWLLLGHAYVEVKNTTAAVEAYRTAVELNERDYRGWYNLGQIYELLEAYHHALYYYWHTTSLRPADPGMWVAVANCLEHDGRIAESIACLERAETYDSSSSPSYPAYVRRIATHHIANSSYTRACVYLEKLAQSPAASTEDLLLALPFIVQHYVQRARSSVEGFARSSSYDTVLFSPGANNVSLMSSPASGAVAAGRTALHHARAAAALQHLNKAEEHLSTMAELVMPSGHNGAGNEEAAQTPATSAAAGESEQGGAENTAPQRAAEDAPHRRRTRQPRSGAAANASVSASASAALAAVAASTAPSAGDVPPVAFVRSRHQEIGMLRAQAMHLLQIGAGASGSTIPVAASASASVATQPSSSSSQQQQQQQQQRHQQHRNPFVSQLLGRYQ”: the “soluble on expression in E. coli” value is reported as “not soluble”.

Turning to “MLVTTTERISGQEYEIIGEVFGLTTRSKNMFKDLGAGLKSVVGGEIKGYTDMQREARDQAIERLKAEASKLGADAVVMMRFDSGTIGTDMQSVVAYGTAVKYILEHHHHHH”, the “soluble on expression in E. coli” value was “not soluble”.

Consider “LEMKGKRMSVTAVMRELEKEENLYRRSGGGITLSGGEPLAQPEFARELLKACKAKGWHTAIETSGFTTKAVIDEVFPYVDLALTDIKAIDPEIHERNTGVNNRVILENLLRISFLTKVVVRIPVIPGVNDNSQEIHNIAEFARLMQNVDTIHLLPYHSFGENKYNLLGRQYPMGDTKSIEESQMAELKAMVESLGFNCHIGG”, for which the “soluble on expression in E. coli” value is on record as “not soluble”.

Turning to “MRLNIAPAPWPGAPVVVLSAGLGGGGGYWLAQRAALEEQYQLVSYDHNGTGENAGPLPAGYSLATMAGELFSALQAAGIARFALVGHALGALIGLQLALDRPEAVSALALVNGWLSLSPHTRRCFQVRERLLHAGGAQAWVEAQPLFLYPAEWMAARLPRLEAEDALAISHFQGKENLLKRLQALKQADFSRRASAIACPTLIISAADDLLVPASCSRVLQTAIPGSQLVEMPWGGHACNVTDADTFNTILRDGLSAMLPVARETR”, the “soluble on expression in E. coli” value was “not soluble”.

Regarding “MGSDKIHHHHHHMTLLLKENDVINLLDYKQIYGALVNAFLLFENKFAINLERSRISFHGTTLTFQAAGMENYIGYKTFISGNHLTFLYDTSGNLLSIIESDRLSQARTAVLSILATDYVYGDFSSLGVIGLGKYGLAIVEIANQLKKGIKINVFTPSQQRMEKALSILRGEGIDVSPKDSIKRVCEESEVVTTITKAKDPFLKLEYVNNKRIHINAMGSNIPEKIEIFPEVIKASNLIVVEELEHEFKRIRRVSHRKRMGMLDMSKITLLSWILSRKINVQKEGITIFKSVGIGLEDLAVGKLIYEKALSKGLGTEIEVKGVWYRESEKK”, the “soluble on expression in E. coli” value is listed as “not soluble”.

In the case of “MGSDKIHHHHHHMTVDPSHTIPVSVTGAFCSLNCPHCGAHYLRHMISVDEIPALVKKGYRSFLISGGMLPDGSIPFEKYYEHLKELKESHGLLYNFHVGFQKSKVAKELADVVSMDFFGDETVLKSIYGLALTPQEILDIAHFYENVVFHITVGITGGKITHEEKALEILSQETDTVVLNVFIPTPGTKFGKSFPPDLQEVVKLFEKARKLFKRVILGCMQPRGEYRKKLQSELKDLVDVITKPVGGTGEFKGCCAFIGRG”, the “soluble on expression in E. coli” value is “not soluble”.

Turning to “MPITKIHARQIYDSRGNPTVEVDLFTEKGVFRAAVPSGASTGVHEALELRDGDKAVHLGKGVLKAVSNINEKIAPALIAKGFDVTAQKDIDDFMMALDGSENKGNLGANAILGVSLAVAKAGAVHKGLPLYKYIAELAGTGKVVLPVPAFNVINGGSHAGNKLAMQEFMILPVGASSFAEAMRMGSEVYHHLKAEIKKRYGLDATAVGDEGGFAPNIQDNKEGLDLLNTAIDKAGYTGKISIGMDVAASEFFKDGKYDLDFKNPASDSSKWLSGEQLTELYQSFIKEYPVVSIEDAFDQDDWDNWGKFHGATSIQLVGDDLTVTNPKRIQTAIDKKSCNCLLLKVNQIGSVTESIEAAKLSRANGWGVMVSHRSGETEDTFIADLVVGLATGQIKTGAPCRSERLAKYNQLLRIEEELGADAVYAGHNFRNPQV”, the “soluble on expression in E. coli” value was “not soluble”.

Consider “MGSDKIHHHHHHMAAKPPLTLYLAAPRGFCAGVDRAIKIVEMALEKWGAPVYVRHEIVHNKFVVDGLRDKGAVFVEELEECPDDRPVIFSAHGVPKSVPAAAEARQMVYVDATCPLVSKVHIEAQRHAEAGLQMIMIGHKGHPETVGTMGQLPEGEVLLVETVEDVAQVEVRDPERLAFVTQTTLSVDDTKDIVAALQARFPAIVGPHKEDICYATTNRQEAVKEVAPKADALLVVGAPNSSNSRRLVEVGAKNGCSYAQLVQRAENIDWRALEGIQSIAITAGASAPELLVNEVIDAFRDRYEVTVELVETAVERVEFKVPRVLRTA”, for which the “soluble on expression in E. coli” value is “not soluble”.

Regarding “MGSDKIHHHHHHMKQQYTATVVMATYNGEKNILEQLDSLKNQSKKIDEVLIWDDCSTDSTVKIIENFISENKLGETWHLQINTENLGWRKNFFNLLNAATKEIVFTCDQDDIWDASKIEVMCEAFANTDVKVLVSDYTELVEPGGLAEELKKIDSVKLPNQKAEQIIFNENNLFLRRPGCVYAIRKSFIANVNLYASEMENPVHDMAMWGSSLLSDGLYIVREELIRWRKHGQSSFKKEIDLAKKQNHFEERLNTLRRRLQRTEAAKNYLNNQPHVEEFEYKDKVLSNLIKELNMRVSLLERKKIIPILCAFFKYHHKFYFSTDIYHIMKYKIRK”, the “soluble on expression in E. coli” value was “not soluble”.

As to “SATAQLSHCITIHKASKETVFPSQITNEHESLKMVKKLFATSISCITYLRGLFPESSYGERHLDDLSLKILREDKKCPGSLHIIRWIQGCFDALEKRYLRMAVLTLYTDPMGSEKVTEMYQFKFKYTKEGATMDFDSHSSSTSFESGTNNEDIKKASVLLIRKLYILMQDLEPLPNNVVLTMKLHYYNAVTPHDYQPLGFKEGVNSHFLLFDKEPINVQVGFVSTGFHSMKVKVMTEATKVIDLENNLFRENSTTEIAHQGLDCDEEEECNDHIQRMNFVCSQQSSECSRKKRKVSEPVKVFIPNRK”, the “soluble on expression in E. coli” value was “soluble”.

For the sequence “MSLSRRIGIIDTTLRDAQQCLWATRMTAGMMDPIAQALDEAGFDMIDFMAPVQFDVCVRYLREDPFEKARHFRKRFRNTPMRSYCRSKSLVGFSMVPDDMVELWIDCLAANGFSAVGTLDSLLDVDNMKVSVGRAKKIGIKSIGALVFCESPLHTDALYAGTAAELVRCGVDGIMLKDSGALLTIERIRTLIPALRAAVGDIPIEVHSHSNTGLVQRVYLDAADLGIDQLHTSIAPLAGGVAQPSIQNMTRNLAQRGYRTDVDMARVEEISAYLHRLAARYDFPLGKEGHHHHHH”, the “soluble on expression in E. coli” value is reported as “not soluble”.

Turning to “MRYLPIFVFLGSFGYTETTLTKELIKDAAEKCCTRNRQECCIEIMKFGTPIRCGYDRDPKLPGYVYKCLQNVLFAKEPKKKINLDDSVCCSVFGNDQNDSGRRCENRCKNLMTSPSIDAATRLDSIKSCSLLDNVLYKCFEKCRSLRKDGIKIEVLQFEEYCNATFIQKRTFRGV”, the “soluble on expression in E. coli” value is “not soluble”.

With “HTGTVDIVADKTLYQPGETAKMLITFPEPIDEALLTLERDRVEQQSLLSHPANWLTLQRLNDTQYEARVPVSNSFAPNITFSVLYTRNGQYSFQNAGIKVAVPQLDIRVKTDKTHYQPGELVNVELTSSLKGKPVSAQLTVGVVDEMIYALQPE”, the “soluble on expression in E. coli” value is recorded as “not soluble”.
